Assay results: the supplement of paper PMC5998384

Legend:
[1] = system: HeLa Kyoto; experiment: solubility in G1/S (NP-40 vs SDS abundance) (log2 ratio); higher = more soluble; conditions: cell cycle stage: G1/S
[2] = system: HeLa Kyoto; experiment: solubility change mitosis vs G1/S (difference of NP-40 vs SDS log2 ratios) (log2 ratio difference); higher = more soluble in mitosis
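For solubility change mitosis vs G1/S (difference of NP-40 vs SDS log2 ratios) in this document: synchronized HeLa Kyoto cells (double thymidine block for G1/S, nocodazole release for mitosis), protein amounts in NP-40 versus SDS lysates quantified by mass spectrometry, three biological replicates.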
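For solubility in G1/S (NP-40 vs SDS abundance) in this document: HeLa Kyoto cells arrested at G1/S by double thymidine block, proteins quantified by TMT10plex mass spectrometry in mild NP-40 versus SDS extracts, three biological replicates.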

Sequence	solubility in G1/S (log2) [1]	solubility change mitosis (log2) [2]
MMDSPFLELWQSKAVSIREQLGLGDRPNDSYCYNSAKNSTVLQGVTFGGIPTVLLIDVSCFLFLILVFSIIRRRFWDYGRIALVSEADSESRFQRLSSTSSSGQQDFENELGCCPWLTAIFRLHDDQILEWCGEDAIHYLSFQRHIIFLLVVVSFLSLCVILPVNLSGDLLDKDPYSFGRTTIANLQTDNDLLWLHTIFAVIYLFLTVGFMRHHTQSIKYKEENLVRRTLFITGLPRDARKETVESHFRDAYPTCEVVDVQLCYNVAKLIYLCKEKKKTEKSLTYYTNLQVKTGQRTLINPKPCGQFCCCEVLGCEWEDAISYYTRMKDRLLERITEEERHVQDQPLGMAFVTFQEKSMATYILKDFNACKCQSLQCKGEPQPSSHSRELYTSKWTVTFAADPEDICWKNLSIQGLRWWLQWLGINFTLFLGLFFLTTPSIILSTMDKFNVTKPIHALNNPIISQFFPTLLLWSFSALLPSIVYYSTLLESHWTKSGENQIMMTKVYIFLIFMVLILPSLGLTSLDFFFRWLFDKTSSEASIRLECVFLPDQGAFFVNYVIASAFIGNGMELLRLPGLILYTFRMIMAKTAADRRNVKQNQAFQYEFGAMYAWMLCVFTVIVAYSITCPIIAPFGLIYILLKHMVDRHNLYFVYLPAKLEKGIHFAAVNQALAAPILCLFWLYFFSFLRLGMKAPATLFTFLVLLLTILVCLAHTCFGCFKHLSPLNYKTEEPASDKGSEAEAHMPPPFTPYVPRILNGLASERTALSPQQQQQQTYGAIHNISGTIPGQCLAQSATGSVAAAPQEA [TMEM63A]	-0.142	0.0055
MMFRSDRMWSCHWKWKPSPLLFLFALYIMCVPHSVWGCANCRVVLSNPSGTFTSPCYPNDYPNSQACMWTLRAPTGYIIQITFNDFDIEEAPNCIYDSLSLDNGESQTKFCGATAKGLSFNSSANEMHVSFSSDFSIQKKGFNASYIRVAVSLRNQKVILPQTSDAYQVSVAKSISIPELSAFTLCFEATKVGHEDSDWTAFSYSNASFTQLLSFGKAKSGYFLSISDSKCLLNNALPVKEKEDIFAESFEQLCLVWNNSLGSIGVNFKRNYETVPCDSTISKVIPGNGKLLLGSNQNEIVSLKGDIYNFRLWNFTMNAKILSNLSCNVKGNVVDWQNDFWNIPNLALKAESNLSCGSYLIPLPAAELASCADLGTLCQATVNSPSTTPPTVTTNMPVTNRIDKQRNDGIIYRISVVIQNILRHPEVKVQSKVAEWLNSTFQNWNYTVYVVNISFHLSAGEDKIKVKRSLEDEPRLVLWALLVYNATNNTNLEGKIIQQKLLKNNESLDEGLRLHTVNVRQLGHCLAMEEPKGYYWPSIQPSEYVLPCPDKPGFSASRICFYNATNPLVTYWGPVDISNCLKEANEVANQILNLTADGQNLTSANITNIVEQVKRIVNKEENIDITLGSTLMNIFSNILSSSDSDLLESSSEALKTIDELAFKIDLNSTSHVNITTRNLALSVSSLLPGTNAISNFSIGLPSNNESYFQMDFESGQVDPLASVILPPNLLENLSPEDSVLVRRAQFTFFNKTGLFQDVGPQRKTLVSYVMACSIGNITIQNLKDPVQIKIKHTRTQEVHHPICAFWDLNKNKSFGGWNTSGCVAHRDSDASETVCLCNHFTHFGVLMDLPRSASQLDARNTKVLTFISYIGCGISAIFSAATLLTYVAFEKLRRDYPSKILMNLSTALLFLNLLFLLDGWITSFNVDGLCIAVAVLLHFFLLATFTWMGLEAIHMYIALVKVFNTYIRRYILKFCIIGWGLPALVVSVVLASRNNNEVYGKESYGKEKGDEFCWIQDPVIFYVTCAGYFGVMFFLNIAMFIVVMVQICGRNGKRSNRTLREEVLRNLRSVVSLTFLLGMTWGFAFFAWGPLNIPFMYLFSIFNSLQGLFIFIFHCAMKENVQKQWRQHLCCGRFRLADNSDWSKTATNIIKKSSDNLGKSLSSSSIGSNSTYLTSKSKSSSTTYFKRNSHTDNVSYEHSFNKSGSLRQCFHGQVLVKTGPC [GPR126]	-0.117	-0.0428
MMMVRRGLLAWISRVVVLLVLLCCAISVLYMLACTPKGDEEQLALPRANSPTGKEGYQAVLQEWEEQHRNYVSSLKRQIAQLKEELQERSEQLRNGQYQASDAAGLGLDRSPPEKTQADLLAFLHSQVDKAEVNAGVKLATEYAAVPFDSFTLQKVYQLETGLTRHPEEKPVRKDKRDELVEAIESALETLNSPAENSPNHRPYTASDFIEGIYRTERDKGTLYELTFKGDHKHEFKRLILFRPFGPIMKVKNEKLNMANTLINVIVPLAKRVDKFRQFMQNFREMCIEQDGRVHLTVVYFGKEEINEVKGILENTSKAANFRNFTFIQLNGEFSRGKGLDVGARFWKGSNVLLFFCDVDIYFTSEFLNTCRLNTQPGKKVFYPVLFSQYNPGIIYGHHDAVPPLEQQLVIKKETGFWRDFGFGMTCQYRSDFINIGGFDLDIKGWGGEDVHLYRKYLHSNLIVVRTPVRGLFHLWHEKRCMDELTPEQYKMCMQSKAMNEASHGQLGMLVFRHEIEAHLRKQKQKTSSKKT [CSGALNACT1]	0.0522	0.00125
MMQGNTCHRMSFHPGRGCPRGRGGHGARPSAPSFRPQNLRLLHPQQPPVQYQYEPPSAPSTTFSNSPAPNFLPPRPDFVPFPPPMPPSAQGPLPPCPIRPPFPNHQMRHPFPVPPCFPPMPPPMPCPNNPPVPGAPPGQGTFPFMMPPPSMPHPPPPPVMPQQVNYQYPPGYSHHNFPPPSFNSFQNNPSSFLPSANNSSSPHFRHLPPYPLPKAPSERRSPERLKHYDDHRHRDHSHGRGERHRSLDRRERGRSPDRRRQDSRYRSDYDRGRTPSRHRSYERSRERERERHRHRDNRRSPSLERSYKKEYKRSGRSYGLSVVPEPAGCTPELPGEIIKNTDSWAPPLEIVNHRSPSREKKRARWEEEKDRWSDNQSSGKDKNYTSIKEKEPEETMPDKNEEEEEELLKPVWIRCTHSENYYSSDPMDQVGDSTVVGTSRLRDLYDKFEEELGSRQEKAKAARPPWEPPKTKLDEDLESSSESECESDEDSTCSSSSDSEVFDVIAEIKRKKAHPDRLHDELWYNDPGQMNDGPLCKCSAKARRTGIRHSIYPGEEAIKPCRPMTNNAGRLFHYRITVSPPTNFLTDRPTVIEYDDHEYIFEGFSMFAHAPLTNIPLCKVIRFNIDYTIHFIEEMMPENFCVKGLELFSLFLFRDILELYDWNLKGPLFEDSPPCCPRFHFMPRFVRFLPDGGKEVLSMHQILLYLLRCSKALVPEEEIANMLQWEELEWQKYAEECKGMIVTNPGTKPSSVRIDQLDREQFNPDVITFPIIVHFGIRPAQLSYAGDPQYQKLWKSYVKLRHLLANSPKVKQTDKQKLAQREEALQKIRQKNTMRREVTVELSSQGFWKTGIRSDVCQHAMMLPVLTHHIRYHQCLMHLDKLIGYTFQDRCLLQLAMTHPSHHLNFGMNPDHARNSLSNCGIRQPKYGDRKVHHMHMRKKGINTLINIMSRLGQDDPTPSRINHNERLEFLGDAVVEFLTSVHLYYLFPSLEEGGLATYRTAIVQNQHLAMLAKKLELDRFMLYAHGPDLCRESDLRHAMANCFEALIGAVYLEGSLEEAKQLFGRLLFNDPDLREVWLNYPLHPLQLQEPNTDRQLIETSPVLQKLTEFEEAIGVIFTHVRLLARAFTLRTVGFNHLTLGHNQRMEFLGDSIMQLVATEYLFIHFPDHHEGHLTLLRSSLVNNRTQAKVAEELGMQEYAITNDKTKRPVALRTKTLADLLESFIAALYIDKDLEYVHTFMNVCFFPRLKEFILNQDWNDPKSQLQQCCLTLRTEGKEPDIPLYKTLQTVGPSHARTYTVAVYFKGERIGCGKGPSIQQAEMGAAMDALEKYNFPQMAHQKRFIERKYRQELKEMRWEREHQEREPDETEDIKK [DROSHA]	-0.744	0.203
MNALLEQKEQQERLREAAALGDIREVQKLVESGVDVNSQNEVNGWTCLHWACKRNHGQVVSYLLKSGADKEILTTKGEMPVQLTSRREIRKIMGVEEEDDDDDDDDNLPQLKKESELPFVPNYLANPAFPFIYTPTAEDSAQMQNGGPSTPPASPPADGSPPLLPPGEPPLLGTFPRDHTSLALVQNGDVSAPSAILRTPESTKPGPVCQPPVSQSRSLFSSVPSKPPMSLEPQNGTYAGPAPAFQPFFFTGAFPFNMQELVLKVRIQNPSLRENDFIEIELDRQELTYQELLRVCCCELGVNPDQVEKIRKLPNTLLRKDKDVARLQDFQELELVLMISENNFLFRNAASTLTERPCYNRRASKLTY [ANKRD40]	-0.0058	-0.00743
